From the supplement of paper PMC10567573 come the findings set out here.

The nature of this data set: protein stability index of a GFP-peptide fusion (GPS, HEK-293T) (PSI 1-6); higher = more stable. Conditions: c terminus: a fixed tail appended.

± gives the standard deviation.
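Note: 24-mer peptide tiles fused after GFP, lentivirally expressed, FACS-sorted into six equal bins by GFP/DsRed ratio, decoded by Illumina sequencing, PSI is the read-weighted mean bin number.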

Turning to YIPVIKRALNSVPVIIAAVGTRQN [RHOBTB3], the protein stability index reads like this: (treatment: DMSO) 2.35 ± 0.52; (treatment: MLN4924 1 uM, 8 h) 2.24 ± 0.35.

Take KEAKEFLVQLRNMVQQIQENSVEF [TRIM9]: the protein stability index is 2.29 ± 0.31 (treatment: DMSO) and 2.41 ± 0.23 (treatment: MLN4924 1 uM, 8 h).

Regarding EEVAKAVLEQEETAAASRERQEEQ [EPB41L3], the protein stability index came to 5.71 ± 0.078 (treatment: DMSO) and 5.63 ± 0.19 (treatment: MLN4924 1 uM, 8 h). GGFGQVYKVRHVHWKTWLAIKCSP [RIPK4]: the protein stability index came out at 2.35 ± 0.85 (treatment: DMSO) and 2.05 ± 0.32 (treatment: MLN4924 1 uM, 8 h). Regarding QVTASDSGDPPLSSNVSLSLFVLD [PCDHGA10], the protein stability index (treatment: DMSO) worked out at 3.31 ± 0.4 and the protein stability index (treatment: MLN4924 1 uM, 8 h) was 3.48 ± 0.29. Take LTWSELFVLNAAQCSMPLHVAPLL [NR2F2]: the protein stability index reads like this: (treatment: DMSO) 2.98 ± 0.21; (treatment: MLN4924 1 uM, 8 h) 3.16 ± 0.32.

On to HCTTVDGQRQLMVPARDGTSCKLT [ADAMTSL2], for which the protein stability index by setting is: (treatment: DMSO) 4.41 ± 0.2; (treatment: MLN4924 1 uM, 8 h) 4.44 ± 0.11. Regarding MDVGETAMVTADSKYCYGPQGSRS [FKBP8], the protein stability index was determined as 4.36 ± 0.31 (treatment: DMSO) and 4.51 ± 0.23 (treatment: MLN4924 1 uM, 8 h). For LMSSAVPMTPEDPSFWDCFCFTEE [AASDHPPT] the same measures were 3.98 ± 0.25 and 3.86 ± 0.23. As for GALYGITLIPTCKFYTWLWGVFYY [SCD], the protein stability index (treatment: DMSO) stood at 2.39 ± 0.41. Take PAIADLFAESLQCKVDCEANLTPN [P3H4]: the protein stability index runs as follows: (treatment: DMSO) 3.93 ± 0.38; (treatment: MLN4924 1 uM, 8 h) 4.05 ± 0.55. For MVSSVLCRCVASPPPDAAATAASS [SLC25A25], the protein stability index reads like this: (treatment: DMSO) 2.94 ± 0.24; (treatment: MLN4924 1 uM, 8 h) 2.92 ± 0.22.

For the sequence YPAMTFYSPAVMNYSIPSNVTNLE [ESR2], the protein stability index is 2.63 ± 0.61 (treatment: DMSO) and 2.93 ± 0.25 (treatment: MLN4924 1 uM, 8 h). As to FMPQGAGGHTREARIQTLEPDNWM [RSAD1], the protein stability index by setting is: (treatment: DMSO) 3.27 ± 0.33; (treatment: MLN4924 1 uM, 8 h) 3.11 ± 0.29. As to QRITQEQEKKLSFIEALIQQYQEQ [TRIM63], the protein stability index reads like this: (treatment: DMSO) 2.68 ± 0.36; (treatment: MLN4924 1 uM, 8 h) 3.02 ± 0.52. As for HLARHAVACFLTRGDLWISWEEGM [CRY1], the protein stability index by setting is: (treatment: DMSO) 3.01 ± 0.72; (treatment: MLN4924 1 uM, 8 h) 2.98 ± 0.47. ILELYNIDSHLLLSVLPQLEFKLK [PDS5B]: the protein stability index was found to be 2.64 ± 0.53 (treatment: DMSO) and 2.45 ± 0.78 (treatment: MLN4924 1 uM, 8 h). The corresponding values for DTRRLITKPQNLNDAYGPPSNFLE [SNX3] are 3.69 ± 0.17 and 3.88 ± 0.17.

As for PMVTSPREEQQLLASTSKPVVKLL [KCTD13], the protein stability index is 4.26 ± 0.32 (treatment: DMSO) and 4.25 ± 0.11 (treatment: MLN4924 1 uM, 8 h). The corresponding values for FSGQIRLNEDTIQDVVQAADLLLL [GAN] are 2.27 ± 0.24 and 2.3 ± 0.43. Consider MVIQLLAIMCVSCICWSPFLVTMA [PTGFR], for which the protein stability index is, setting by setting: (treatment: DMSO) 3.11 ± 0.45; (treatment: MLN4924 1 uM, 8 h) 3.22 ± 0.36. Regarding GRCTVRDFIHRHCQDQNVPVENFF [SDE2], the protein stability index stood at 2.51 ± 0.4 (treatment: DMSO) and 2.72 ± 0.049 (treatment: MLN4924 1 uM, 8 h). As for RTIVKGYNENVYTEDGKLDIWSKS [MED27], the protein stability index (treatment: DMSO) was found to be 3.84 ± 0.35 and the protein stability index (treatment: MLN4924 1 uM, 8 h) turned out to be 3.91 ± 0.3. Turning to HLRIHTGEKPYKCTHCSKSFRQRA [ZNF449], the protein stability index is, setting by setting: (treatment: DMSO) 2.83 ± 0.43; (treatment: MLN4924 1 uM, 8 h) 3.11 ± 0.38.

KGMVLDENYNNLANAVISVSGINH [CPN1]: the protein stability index turned out to be 3.06 ± 0.086 (treatment: DMSO) and 3.02 ± 0.29 (treatment: MLN4924 1 uM, 8 h). Regarding MTVPATAIYFTAYDQLKAFLCGRA [SLC25A39], the protein stability index by setting is: (treatment: DMSO) 2.35 ± 0.51; (treatment: MLN4924 1 uM, 8 h) 2.23 ± 0.33.

Regarding RDKILTATIENNRVILEIDNARLA [KRT13], the protein stability index (treatment: DMSO) was determined as 2.69 ± 0.29 and the protein stability index (treatment: MLN4924 1 uM, 8 h) amounted to 2.83 ± 0.33. Consider LRCKLAAFYRLADLFGWSQLIYNH [ADD1], for which the protein stability index was determined as 2.89 ± 0.49 (treatment: DMSO) and 2.78 ± 0.37 (treatment: MLN4924 1 uM, 8 h). In the case of MYFSSLFPYVVLACFLVRGLLLRG [SLC6A17], the protein stability index was determined as 2.9 ± 0.65 (treatment: DMSO) and 2.65 ± 0.72 (treatment: MLN4924 1 uM, 8 h). KYAVPALEAHCVEFLTKHLRADNA [BTBD1] had a protein stability index (treatment: DMSO) of 2.54 ± 0.25 and a protein stability index (treatment: MLN4924 1 uM, 8 h) of 2.74 ± 0.17.

Regarding FLDNGYGHCLLDKPEAPLHLPVTF [ADAMTS4], the protein stability index (treatment: DMSO) was 2.07 ± 0.37 and the protein stability index (treatment: MLN4924 1 uM, 8 h) turned out to be 2.16 ± 0.14. For TAYNKGRLQSSFWIVDKQHVYIGS [PLD5] the same measures were 2.49 ± 0.45 and 2 ± 0.27.

Take APRGTPDPGLGEGPALWLRSTCVY [PLEKHN1]: the protein stability index came to 2.43 ± 0.24 (treatment: DMSO) and 2.34 ± 0.27 (treatment: MLN4924 1 uM, 8 h). The corresponding values for DARDGQSRTVRQFQFTDWPEQGVP [PTPRD] are 4.08 ± 0.61 and 4.32 ± 0.41. For VVGDNAVGKTRLICARACNTTLTQ [RHOBTB1], the protein stability index is, setting by setting: (treatment: DMSO) 2.69 ± 0.32; (treatment: MLN4924 1 uM, 8 h) 2.73 ± 0.38. Consider LRNKLRELCVKLMFLHPVDYGRKA [SMG5], for which the protein stability index worked out at 3.21 ± 0.36 (treatment: DMSO) and 3.03 ± 0.51 (treatment: MLN4924 1 uM, 8 h). SSGQCRRRKRTYWNDSCGEDMEAS [WEE1] yielded a protein stability index (treatment: DMSO) of 4.18 ± 0.43 and a protein stability index (treatment: MLN4924 1 uM, 8 h) of 4.52 ± 0.43.
